In experiment [1] the target is D3H44 light chain F116A_Q124R_L135V_T178R. As to the kind of experiment: LCCA, SPR tag readout, L1:L2 DNA 1:3 normalized to 1:1; competitor m24.
The target in experiment [2] is D3H44 light chain F116A_Q124R_L135V. The experiment is described as above.
Experiment [3] has as its target D3H44 light chain Q124E_L135W_Q160E_T180E. Kind of experiment: LCCA, SPR tag readout, L1:L2 DNA 1:9 normalized to 1:1; competitor m23.
For experiment [4] the target is unchanged. Kind of experiment: LCCA, SPR tag readout, L1:L2 DNA 1:9 normalized to 1:1; competitor m25.
The target is the same in experiment [5]. Kind of experiment: LCCA, SPR tag readout, L1:L2 DNA 1:3 normalized to 1:1; competitor m25.
Experiment [6] addresses D3H44 light chain F116A_Q124R_L135V_T178R. Kind of experiment: LCCA, SPR tag readout, L1:L2 DNA 1:9 normalized to 1:1; competitor m24.
The target in experiment [7] is D3H44 light chain F116A_Q124R_L135V. Described as above.
Experiment [8] deals with D3H44 light chain Q124E_L135W_Q160E_T180E. Kind of experiment: LCCA, SPR tag readout, L1:L2 DNA 1:3 normalized to 1:1; competitor m23.
Experiment [9] deals with D3H44 light chain T178R with N-terminal HA or FLAG tag. Kind of experiment: LCCA (SPR tag readout), L1:L2 DNA 1:3, normalized to 1:1; competing light chain m13.
The target of experiment [10] is tissue factor (TF) antigen (UniProt P13726). As to the kind of experiment: SPR, Fab captured on anti-penta-His, TF as analyte; against wild-type D3H44 Fab; batch C.
The target is the same in experiment [11]. As to the kind of experiment: SPR, Fab captured on anti-penta-His, TF as analyte, 1:1 fit; batch C. (SPR reads the build-up and loss of mass on a sensor chip optically.)
Experiment [12] has the same target. Kind of experiment: SPR (ProteOn), Fab captured by anti-penta-His, TF as analyte, 1:1 fit; estimated value taken from the Fab differing only in L chain tag.
Experiment [13] shares this target. Kind of experiment: SPR (ProteOn), against wild-type D3H44 Fab; estimated value taken from the Fab differing only in L chain tag.
For experiment [14] the target is unchanged. Kind of experiment: SPR (ProteOn XPR36): His-tagged Fab captured on anti-penta-His surface, TF as analyte, 1:1 fit; value estimated (*) from the Fab differing only in the L chain tag.
Experiment [15] shares this target. Kind of experiment: SPR (ProteOn XPR36), Fab captured on anti-penta-His, TF injected, 1:1 fit.
Experiment [16] shares this target. As to the kind of experiment: SPR, against wild-type D3H44 Fab.
The target is the same in experiment [17]. As to the kind of experiment: SPR, Fab captured by anti-penta-His, TF injected, 1:1 fit.
For experiment [18] the target is unchanged. As to the kind of experiment: SPR; log change of median KD against wild-type D3H44 Fab.

“D3H44 Fab heavy chain A139W_L143E_K145T_Q179E”: the H1L1:H1L2 normalized median ratio was 98% in experiment [1]; 97% in [2]; 3% in [3]; 5% in [4]; 3% in experiment [5]; 97% in experiment [6]. Besides, the H1L1:H1L2 normalized median ratio in experiment [7] came to 95%; in experiment [8], 2%. Besides, the H1L1:H1L2 normalized median scalar value ln(r1/f1) in experiment [1] came out at 3.79; in [2] it was 3.66; in experiment [6], 3.38; in experiment [7] it was 2.96. Further, the H2L2:H2L1 normalized median ratio in [1] was 98%; in experiment [2], 97%; in [3], 3%; in [4], 5%; in experiment [5], 3%; in experiment [6], 97%. The H2L2:H2L1 normalized median ratio was found to be 95% in [7] and 2% in experiment [8].
Take “D3H44 Fab heavy chain L143D_K145T_Q179E with C-terminal ABD2-His6 tag”: in experiment [9], the H1L1:H1L2 normalized median ratio was 79% and the H1L1:H1L2 normalized median scalar value ln(r1/f1) turned out to be 1.31.
For D3H44 Fab heavy chain Q179K, the H2L2:H2L1 normalized median ratio in experiment [1] turned out to be 12%; in [2] it was 23%; in experiment [3], 87%; in experiment [4], 80%; in [5] it was 77%; in experiment [6], 13%. Moreover, the H2L2:H2L1 normalized median ratio in experiment [7] stood at 20%; in experiment [8] it was 88%.
By Kd is commonly meant the constant that tells how readily two partners part at equilibrium. In turn, “D3H44 Fab heterodimer, H1 Q179R / L1 S131E (H1L1 Fab of LCCA Set # 9980)” came in with a change in median KD compared to wild type, -(log(KD design)-log(KD wt)) in experiment [10] of 0. Also, in experiment [11], the Kd is 0.16 nM.
Taken in the same sequence, the figures for “D3H44 Fab heterodimer, H1 S186K / L1 Q124E_T178E (H1L1 Fab of LCCA Set # 9850 and 9849)” were 0.01 and 0.15 nM.
Taken in the same sequence, the figures for “D3H44 Fab heterodimer, H1 S186R / L1 Q124E_Q160E_T178E (H1L1 Fab of LCCA Set # 9867 and 9868)” were 0.06 and 0.14 nM.
Take “D3H44 Fab heterodimer, H1 S186R / L1 Q124E_T178E_T180E (H1L1 Fab of LCCA Set # 9889 and 9890)”: the change in median KD compared to wild type, -(log(KD design)-log(KD wt)) in [10] came out at 0.49. Besides, the Kd in experiment [11] stood at 0.05 nM.
For the substance “D3H44 Fab heterodimer, H1 S186R / L1 S131E (H1L1 Fab of LCCA Set # 9981 and 9985)”, in experiment [10], the change in median KD compared to wild type, -(log(KD design)-log(KD wt)) came out at 0.1. Further, the dissociation constant (Kd) in experiment [11] is 0.12 nM.
Consider “D3H44 Fab heterodimer, H1L1 of LCCA set 9131 (H: L124E_K145M_Q179E; L: S131K_V133G_S176R)”, for which the Kd in experiment [12] was 0.15 nM. The Change in KD with respect to wild type (-(log(KD design) - log(KD wt))) in experiment [13] was 0.02.
Take “D3H44 Fab heterodimer, H1L1 of LCCA set 9645 (H: L143E_K145T_Q179E; L: Q124K_T178R)”: the Kd in experiment [12] is 0.14 nM. Moreover, in experiment [13], the Change in KD with respect to wild type (-(log(KD design) - log(KD wt))) is 0.05.
The corresponding values for “D3H44 Fab heterodimer, H1L1 of LCCA set 9651 (H: L143E_K145T_Q179E; L: Q124R_Q160K_T178R)” are 0.15 nM and 0.02.
Taken in the same sequence, the figures for “D3H44 Fab heterodimer, H1L1 of LCCA set 9657 (H: L143E_K145T_Q179E; L: Q124R_T178K)” were 0.19 nM and -0.08.
With “D3H44 Fab heterodimer, H1L1 of LCCA set 9683 (H: L143E_K145T_Q179E; L: T178R)”, in experiment [12], the dissociation constant (Kd) is 0.3 nM. The Change in KD with respect to wild type (-(log(KD design) - log(KD wt))) in experiment [13] was -0.28.
On to “D3H44 H1L1 Fab heterodimer of LCCA set 9079 (H1 K145T_Q179E; L1 S131K)”, for which, in [14], the Change in median values of KD of h1|1 Fab heterodimer compared to wild type (-(log(KD design)-log(KD wt))) was -0.01 log units and the Kd is 0.16 nM.
Taken in the same sequence, the figures for “D3H44 H1L1 Fab heterodimer of LCCA set 9635 (H1 L143E_K145T_Q179D; L1 Q124R_T178R)” were 0.04 log units and 0.14 nM.
Substance “H1L1 Fab heterodimer of LCCA Set # 9068 (D3H44 Fab; H1 F174G, L1 S131T_S176F_T178F)” showed a Kd in experiment [15] of 0.13 nM. Besides, in experiment [16], the Change in median values of KD of h1l1 Fab heterodimer compared to wild type (-(log(KD design)-log(KD wt))) worked out at 0.07.
As to “H1L1 Fab heterodimer of LCCA Set # 9070 (D3H44 Fab; H1 F174G, L1 S131T_S176F_T178Y)”, the Kd in experiment [15] stood at 0.16 nM. This substance also had a Change in median values of KD of h1l1 Fab heterodimer compared to wild type (-(log(KD design)-log(KD wt))) in [16] of 0.
The corresponding values for “H1L1 Fab heterodimer of LCCA Set # 9073 (D3H44 Fab; H1 F174V, L1 S131T_S176F_T178Y)” are 0.14 nM and 0.04.
The corresponding values for “H1L1 Fab heterodimer of LCCA Set # 9074 (D3H44 Fab; H1 H172R_Q179K, L1 Q124E_Q160E_T180E)” are 0.16 nM and -0.01.
The corresponding values for “H1L1 Fab heterodimer of LCCA Set # 9569 (D3H44 Fab; H1 L124W_L143F, L1 V133A_S176T_T178L)” are 0.3 nM and -0.28.
In experiment [17], “H1L1 Fab heterodimer of LCCA set 9058 (D3H44 Fab, H1 A139W_L143E_K145T_Q179E, L1 F116A_Q124R_L135V)” showed a Kd of 0.12 nM. Moreover, in experiment [18], the Change in median values of KD of h1l1 Fab heterodimer compared to wild type (-(log(KD design)-log(KD wt))) amounted to 0.12 log units.
Taken in the same sequence, the figures for “H1L1 Fab heterodimer of LCCA sets 9078, 9077 and 9076 (D3H44 Fab, H1 H172T_Q179K, L1 Q124E_N137K_Q160E_S174R_T180E)” were 0.15 nM and 0.01 log units.
With “H1L1 Fab heterodimer of LCCA sets 9574 and 9573 (D3H44 Fab, H1 L143A_Q179K, L1 Q124E_V133Y_T180E)”, the Kd in experiment [17] is 0.27 nM. In addition, the Change in median values of KD of h1l1 Fab heterodimer compared to wild type (-(log(KD design)-log(KD wt))) in experiment [18] was -0.23 log units.
Taken in the same sequence, the figures for “H1L1 Fab heterodimer of LCCA sets 9721, 9720, 9723, 9722, 9725, 9716, 9712 and 9708 (D3H44 Fab, H1 L143E_K145T_S188L, L1 Q124R_Q160K_T178R)” were 0.24 nM and -0.19 log units.
